Experimental data from patent US20240391977A1.

Target: human TPOR (thrombopoietin receptor, c-Mpl) expressed on BaF3/c-Mpl cells (human) (UniProt P40238)
Assay: cell-based or functional assay

EC50 (ng/ml), growth of BaF3/c-Mpl cells by CCK-8 assay; Nplate®: 8.78 ng/mL
Substance: Romiplostim (Nplate®) (Fc fusion)
